The test concerns the target CD47 (mouse (endogenous in AB1 cells)) (UniProt Q61735). Kind of test: proximity ligation; fixed MM (AB1) cells on coverslips, resting (PBS) or treated overnight with 400 nM BoxA or 10 nM CXCL12; primary antibodies to CD47 together with anti-CXCR4, anti-RAGE or anti-TLR4; Duolink probes; confocal imaging, signal per cell quantified.

Data on two substances can be found in PMC8185548.

Chain of UniProt Q61735 (Q61735 19-303): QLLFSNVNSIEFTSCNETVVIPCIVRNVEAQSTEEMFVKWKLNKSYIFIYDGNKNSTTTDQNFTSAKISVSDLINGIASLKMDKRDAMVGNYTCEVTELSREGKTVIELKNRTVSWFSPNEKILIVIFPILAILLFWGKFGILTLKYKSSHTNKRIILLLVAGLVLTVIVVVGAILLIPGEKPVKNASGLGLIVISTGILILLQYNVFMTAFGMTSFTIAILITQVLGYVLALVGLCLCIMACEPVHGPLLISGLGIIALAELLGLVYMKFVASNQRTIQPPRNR

Consider “TLR4 (from UniProt Q9QUK6 26-835) (receptor)”, for which the PLA signal, fold lower than that of CD47 and CXCR4 (fold lower than CD47/CXCR4) amounted to 100. Under “RAGE (from UniProt Q62151 23-402) (receptor)” stands 100.
